Test results as given in doi:10.1101/2022.12.06.519343.

What was measured:
[1] = target: T1, GFP-His6::sExu531 (Drosophila melanogaster); assay: SEC; details: remark: other sources report otherwise
T1 chain: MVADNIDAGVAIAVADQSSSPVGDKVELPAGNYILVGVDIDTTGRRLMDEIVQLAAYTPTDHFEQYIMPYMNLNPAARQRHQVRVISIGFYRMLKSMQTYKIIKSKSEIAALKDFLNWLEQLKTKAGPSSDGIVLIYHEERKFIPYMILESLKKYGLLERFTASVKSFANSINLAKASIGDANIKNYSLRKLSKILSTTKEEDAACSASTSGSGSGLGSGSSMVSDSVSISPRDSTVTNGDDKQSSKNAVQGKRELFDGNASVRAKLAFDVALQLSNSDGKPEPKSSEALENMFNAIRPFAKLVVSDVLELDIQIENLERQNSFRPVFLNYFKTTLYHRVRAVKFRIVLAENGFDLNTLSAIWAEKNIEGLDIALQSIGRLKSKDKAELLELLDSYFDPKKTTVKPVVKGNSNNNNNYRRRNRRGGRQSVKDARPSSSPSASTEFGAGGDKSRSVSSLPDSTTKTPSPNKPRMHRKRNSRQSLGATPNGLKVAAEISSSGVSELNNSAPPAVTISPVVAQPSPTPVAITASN

[2] = target: T1, GFP-His6::sExu531 (Drosophila …); assay: SEC; details: remark: other sources report otherwise

stoichiometry N [1]: > 3
stoichiometry N [2]: 3
B1: GFP-His6::sExu531 (natural protein)
chain: MVADNIDAGVAIAVADQSSSPVGDKVELPAGNYILVGVDIDTTGRRLMDEIVQLAAYTPTDHFEQYIMPYMNLNPAARQRHQVRVISIGFYRMLKSMQTYKIIKSKSEIAALKDFLNWLEQLKTKAGPSSDGIVLIYHEERKFIPYMILESLKKYGLLERFTASVKSFANSINLAKASIGDANIKNYSLRKLSKILSTTKEEDAACSASTSGSGSGLGSGSSMVSDSVSISPRDSTVTNGDDKQSSKNAVQGKRELFDGNASVRAKLAFDVALQLSNSDGKPEPKSSEALENMFNAIRPFAKLVVSDVLELDIQIENLERQNSFRPVFLNYFKTTLYHRVRAVKFRIVLAENGFDLNTLSAIWAEKNIEGLDIALQSIGRLKSKDKAELLELLDSYFDPKKTTVKPVVKGNSNNNNNYRRRNRRGGRQSVKDARPSSSPSASTEFGAGGDKSRSVSSLPDSTTKTPSPNKPRMHRKRNSRQSLGATPNGLKVAAEISSSGVSELNNSAPPAVTISPVVAQPSPTPVAITASN
